The results in this text go back to patent US20250101446A1, “METHOD FOR GENETIC TRANSFORMATION OF PLANT ORGANELLE GENOME AND USES THEREOF” (Solar Grants Biotechnology Inc., priority 2022, published 2025).

Assay [1] deals with human metastatic breast cancer cell line MDA-MB-231. Nature of the assay: IL-6 secretion by MDA-MB-231 cells (P1 stimulation, plantakine pre-incubation; ELISA). It is filed as cell-based. As to conditions: pre-incubated 3 h at the indicated concentrations. The method, then:
IL-6 secretion by the human metastatic breast cancer cell line MDA-MB-231 into the conditioned media was measured by ELISA. The cells were pre-incubated for 3 h in the presence of plant-produced recombinant IL-38 or IL-37b at the indicated concentrations (ng/ml) prior to stimulation with peptide P1 (10 mM). PBS (1×) was added to the control. Shown are the average results of 3 independent experiments. ** P<0.01; * P<0.05, compared with the control.
Correct folding of plant-produced IL-38 and IL-37b anti-inflammatory cytokines was assessed by enzyme-linked immunosorbent assay (ELISA) using the DuoSet Human IL-38/IL-1F10 kit (R&D systems) and the Human IL-37/IL-1F7 uncoated ELISA kit (Invitrogen), respectively, following the instructions of the manufacturers. Secreted IL-6 was assessed using the Human IL-6 Uncoated ELISA kit (Invitrogen).
For orientation: ELISA stands for enzyme-linked immunosorbent assay.

Assay [2] concerns human NSCLC cell line NCI-H1792. Briefly: Attenuation of P1-induced IL-6 secretion in NCI-H1792 cells by pre-treatment with plant-produced cytokines (ELISA). The assay is classed as cell-based. To be noted: H1792 cells; pre-incubated 3 h, 1.0 ng/ml; P1 24 h.

B1: plant-produced recombinant human IL-38, mature form C2-W152 with C-terminal 7xHIS tag (ligand)
chain: CSLPMARYYIIKYADQKALYTRDGQLLVGDPVADNCCAEKICILPNRGLARTKVPIFLGIQGGSRCLACVETEEGPSLQLEDVNIEELYKGGEEATRFTFFQSSSGSAFRLEAAAWPGWFLCGPAEPQQPVQLTKESEPSARTKFYFEQSWHHHHHHH
notes: range 2-152; also called rhIL-38; plantakine IL-38
With B1, the “attenuating effect on P1-induced IL-6 secretion (in words)” value in assay [1] is “dose-dependent”. Moreover, the “attenuation of IL-6 secretion triggered by P1” value in assay [2] is listed as −60%.
